We go through 1 molecule from patent publication US20200231681A1 (CHONG KUN DANG PHARMACEUTICAL, published 2020).

Assay [1] deals with T1, human c-Met ECD (ACROBiosystems, MET-H5227) (human, UniProt P08581 25-932).
T1 construct: extracellular domain; Bought protein
Kind of assay: SPR (BIAcore), antibody captured by anti-human IgG Fc, antigen as analyte, 1:1 Langmuir. The method, then: (§1) The antibodies were diluted in HBS-EP buffer (0.01 M HEPES pH 7.4, 0.15 M NaCl, 3 mM EDTA and 0.005% (v/v) Surfactant P20) at a concentration of 1-2 μg/ml, after which the resulting antibodies were injected into a CM5 chip with an anti-human Ig Fc fixed thereto at a flow rate of 30 μl/min for 10-120 seconds, and then captured in a range of 150-200 RU. Each antigen was used after being diluted at 10, 5, 2.5, 1.25, 0.625, 0.3125 and 0.15625 nM, after which the resulting antigens were sequentially injected from a lower concentration. Then, the resulting antigens were injected at a flow rate of 30 μl/min for 5 minutes to carry out binding, after which a running buffer was injected thereinto for 10-15 minutes to carry out a dissociation. 15 μl of 10 mM Glycine-HCl (pH 1.5) was used to revive the chip.
(SPR reads the build-up and loss of mass on a sensor chip optically.)

Assay [2] addresses T2, cynomolgus monkey c-Met ECD (SiNo. Biological, 90304-CO8H) (cynomolgus monkey, UniProt A0A2K5UM36 25-932).
T2 construct: not shown: The vendor's tag
The assay is described as above. As to the method:
as §1

Assay [3] deals with T3, human PDGF Rβ Fc chimera (R&D systems, 385-PR_CF) (human, UniProt P09619 33-530). Nature of the assay: indirect ELISA, hu8C4 at 6.000 nM. As to the method: (§2) Each antigen was diluted in 0.05 M carbonate-bicarbonate (Sigma, C3041) buffer at a concentration of 1 μg/ml, after which the resulting antigen was added into each well of a 96-well plate (Corning, #2592), such that the resulting plate was coated at 4° C. overnight. The plate was washed once with TBS-T, after which TBS-T containing 4%—skim milk was added by 200 μl into each well of the resulting plate in order to inhibit a non-specific binding, such that the resulting plate was reacted at 37° C. for 1 hour. Then, the plate was washed once with TBS-T buffer, after which a primary antibody was sequentially diluted in TBS-T buffer containing 2%—skim milk from a highest concentration of 30 nM to 0.002 nM, such that the resulting antibody was added by 100 μk into each well, thus being reacted at 37° C. for 2 hours. After being washed three times with TBS-T buffer, an anti-human kappa light chains-peroxidase (Sigma, A7164) was diluted at a ratio of 1:5000 as a secondary antibody, after which the resulting antibody was added by 100 μl into each well, thus being reacted at 37° C. for 1 hour. Then, after being washed three times with TBS-T buffer, TMB solution (Sigma, T4444) was added by 100 μl into each well to carry out an color developing reaction, after which 2 N […] solution was added by 50 μl into each well to stop the reaction. An optical density was measured based on a value at a wavelength of 450 nm by using a microplate reader and a reference wavelength of 570 nm was used.
T3 sequence (P09619 33-530, change not shown): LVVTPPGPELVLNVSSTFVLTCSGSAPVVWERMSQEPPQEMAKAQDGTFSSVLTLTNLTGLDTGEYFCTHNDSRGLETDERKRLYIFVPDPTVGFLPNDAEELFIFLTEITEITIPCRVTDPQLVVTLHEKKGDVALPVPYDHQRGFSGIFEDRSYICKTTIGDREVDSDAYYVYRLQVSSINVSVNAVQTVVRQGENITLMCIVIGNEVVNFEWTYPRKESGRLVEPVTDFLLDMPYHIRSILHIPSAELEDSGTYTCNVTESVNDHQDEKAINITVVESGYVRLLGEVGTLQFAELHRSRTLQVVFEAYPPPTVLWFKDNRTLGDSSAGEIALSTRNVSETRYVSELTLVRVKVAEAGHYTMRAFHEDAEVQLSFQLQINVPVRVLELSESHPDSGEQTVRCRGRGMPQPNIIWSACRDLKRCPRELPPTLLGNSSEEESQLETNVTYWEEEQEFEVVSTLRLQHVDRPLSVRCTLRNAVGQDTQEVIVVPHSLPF

Assay [4] addresses T4, human VEGF R2 Fc chimera (R&D systems, 357-KD_CF) (human, UniProt P35968 20-764).
T4 construct: also called VEGFR R2
Kind of assay: indirect ELISA, hu8C4 at 6.000 nM. As to the method:
as §2
Background: An ELISA detects its analyte on a solid surface through an enzyme-linked reagent.

The target in assay [5] is T5, human MSP R/Ron (R&D systems, 1947-MS-050) (human, UniProt Q04912 25-571, limits assumed). Nature of the assay: indirect ELISA, hu8C4 at 6.000 nM. The method, then:
as §2

Assay [6] concerns the target T6, human IGF-I R (R&D systems, 391-GR-050) (human, UniProt P08069 31-932). Nature of the assay: indirect ELISA, hu8C4 at 6.000 nM. The method, then: as §2
For assay [7], the target named is T3, human PDGF Rβ Fc chimera (R&D systems, …). Kind of assay: indirect ELISA, hu8C4 at 0.002 nM. The method, then:
as §2

In assay [8] the target is T4, human VEGF R2 Fc chimera (R&D systems, …). Nature of the assay: indirect ELISA, hu8C4 at 0.002 nM. The method, then: as §2
Assay [9] has as its target T5, human MSP R/Ron (R&D systems, …). Nature of the assay: indirect ELISA, hu8C4 at 0.002 nM. The method, then:
as §2

For assay [10], the target named is T7, mouse c-Met (SiNo. Biological Inc, 50622-M08H) (mouse, UniProt P16056 25-931).
T7 construct: extracellular domain
T7 sequence (P16056 25-931, stated change not applied): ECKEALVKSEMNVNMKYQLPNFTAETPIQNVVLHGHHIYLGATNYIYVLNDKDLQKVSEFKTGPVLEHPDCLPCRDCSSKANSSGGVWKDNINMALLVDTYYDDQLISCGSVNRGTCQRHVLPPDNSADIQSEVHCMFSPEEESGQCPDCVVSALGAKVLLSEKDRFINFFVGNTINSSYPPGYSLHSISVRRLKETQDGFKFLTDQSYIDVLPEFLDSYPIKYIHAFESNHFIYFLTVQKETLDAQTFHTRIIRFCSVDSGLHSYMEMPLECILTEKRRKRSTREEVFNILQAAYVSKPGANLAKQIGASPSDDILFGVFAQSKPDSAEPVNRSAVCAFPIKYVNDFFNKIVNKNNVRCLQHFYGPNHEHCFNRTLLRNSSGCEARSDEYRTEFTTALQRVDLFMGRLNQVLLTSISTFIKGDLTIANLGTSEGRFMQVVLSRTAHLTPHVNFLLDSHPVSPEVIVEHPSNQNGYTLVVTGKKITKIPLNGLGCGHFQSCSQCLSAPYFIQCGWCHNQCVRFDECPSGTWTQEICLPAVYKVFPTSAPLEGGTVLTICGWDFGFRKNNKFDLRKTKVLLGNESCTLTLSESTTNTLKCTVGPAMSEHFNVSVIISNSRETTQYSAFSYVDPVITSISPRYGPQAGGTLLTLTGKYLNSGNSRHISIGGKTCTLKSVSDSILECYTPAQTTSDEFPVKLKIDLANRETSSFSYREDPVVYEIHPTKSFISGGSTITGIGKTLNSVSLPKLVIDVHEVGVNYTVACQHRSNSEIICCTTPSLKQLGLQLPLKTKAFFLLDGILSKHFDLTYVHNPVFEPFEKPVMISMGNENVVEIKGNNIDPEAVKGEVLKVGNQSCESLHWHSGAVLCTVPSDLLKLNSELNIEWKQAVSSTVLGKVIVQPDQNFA
Nature of the assay: ELISA, antigen coated at 2 µg/ml, antibody 6.4 pM to 100 nM, anti-human IgG F(ab')2-HRP, TMB, O.D. at 450 nm [panel Mouse cMet]. The method, then: Particularly, mouse c-Met (SiNo. Biological Inc, 50622-M08H), cynomolgus monkey c-Met (SiNo. Biological Inc, 90304-CO8H), human c-Met (R&D Systems, 358-MT), mouse EGFR (SiNo. Biological Inc, 51091-M08H), cynomolgus monkey EGFR (SiNo. Biological, 90285-008B) and human EGFR (Abcam, 155639) antigens were all divided into a 96-well plate at a concentration of 2 μg/ml, after which the resulting plate was reacted at 4° C. overnight.
Color development was made by using TMB (Sigma, T4444) solution, wherein its value was measured at an optical density of 450 nm and its ELISA results are shown in FIG. 9.

Assay [11] concerns the target T3, human PDGF Rβ Fc chimera (R&D systems, …). Nature of the assay: indirect ELISA, hu8C4 at 1.200 nM. The method, then:
as §2

Assay [12] addresses T4, human VEGF R2 Fc chimera (R&D systems, …). Nature of the assay: indirect ELISA, hu8C4 at 1.200 nM. The method, then:
as §2

In assay [13] the target is T5, human MSP R/Ron (R&D systems, …). Kind of assay: indirect ELISA, hu8C4 at 1.200 nM. As to the method:
as §2

Assay [14] deals with T6, human IGF-I R (R&D systems, 391-GR-050). Nature of the assay: indirect ELISA, hu8C4 at 1.200 nM. As to the method:
as §2

For orientation: Kd means the constant that tells how readily two partners part at equilibrium. For orientation: koff means the first-order rate constant of dissociation. As usually defined, the kon is a measure of how fast the partners come together.

T1 sequence (P08581 25-932): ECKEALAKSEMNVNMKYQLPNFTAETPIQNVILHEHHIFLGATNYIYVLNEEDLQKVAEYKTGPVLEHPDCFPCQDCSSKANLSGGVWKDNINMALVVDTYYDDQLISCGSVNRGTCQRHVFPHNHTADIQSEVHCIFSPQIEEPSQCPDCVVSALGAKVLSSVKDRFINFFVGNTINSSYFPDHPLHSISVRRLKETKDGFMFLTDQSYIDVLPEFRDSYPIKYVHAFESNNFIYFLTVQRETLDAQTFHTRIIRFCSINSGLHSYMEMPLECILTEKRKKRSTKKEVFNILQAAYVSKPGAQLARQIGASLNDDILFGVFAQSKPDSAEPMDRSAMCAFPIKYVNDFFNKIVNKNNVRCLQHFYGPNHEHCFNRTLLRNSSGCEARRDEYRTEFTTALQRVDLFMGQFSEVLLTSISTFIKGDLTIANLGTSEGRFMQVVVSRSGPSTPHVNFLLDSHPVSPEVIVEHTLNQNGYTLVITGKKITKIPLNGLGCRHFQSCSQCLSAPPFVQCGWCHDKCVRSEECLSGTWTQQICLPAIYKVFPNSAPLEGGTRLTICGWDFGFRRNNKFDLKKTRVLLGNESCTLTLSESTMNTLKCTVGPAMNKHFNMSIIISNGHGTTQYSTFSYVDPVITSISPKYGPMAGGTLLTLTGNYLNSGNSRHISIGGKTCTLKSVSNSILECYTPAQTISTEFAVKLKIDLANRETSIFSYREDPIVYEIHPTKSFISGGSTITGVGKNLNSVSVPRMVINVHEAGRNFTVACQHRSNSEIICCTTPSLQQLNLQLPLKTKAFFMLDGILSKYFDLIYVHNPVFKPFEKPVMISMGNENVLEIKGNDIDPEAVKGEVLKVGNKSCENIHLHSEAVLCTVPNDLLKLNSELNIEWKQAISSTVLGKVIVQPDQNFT
T2 sequence (A0A2K5UM36 entry or part of it limits assumed): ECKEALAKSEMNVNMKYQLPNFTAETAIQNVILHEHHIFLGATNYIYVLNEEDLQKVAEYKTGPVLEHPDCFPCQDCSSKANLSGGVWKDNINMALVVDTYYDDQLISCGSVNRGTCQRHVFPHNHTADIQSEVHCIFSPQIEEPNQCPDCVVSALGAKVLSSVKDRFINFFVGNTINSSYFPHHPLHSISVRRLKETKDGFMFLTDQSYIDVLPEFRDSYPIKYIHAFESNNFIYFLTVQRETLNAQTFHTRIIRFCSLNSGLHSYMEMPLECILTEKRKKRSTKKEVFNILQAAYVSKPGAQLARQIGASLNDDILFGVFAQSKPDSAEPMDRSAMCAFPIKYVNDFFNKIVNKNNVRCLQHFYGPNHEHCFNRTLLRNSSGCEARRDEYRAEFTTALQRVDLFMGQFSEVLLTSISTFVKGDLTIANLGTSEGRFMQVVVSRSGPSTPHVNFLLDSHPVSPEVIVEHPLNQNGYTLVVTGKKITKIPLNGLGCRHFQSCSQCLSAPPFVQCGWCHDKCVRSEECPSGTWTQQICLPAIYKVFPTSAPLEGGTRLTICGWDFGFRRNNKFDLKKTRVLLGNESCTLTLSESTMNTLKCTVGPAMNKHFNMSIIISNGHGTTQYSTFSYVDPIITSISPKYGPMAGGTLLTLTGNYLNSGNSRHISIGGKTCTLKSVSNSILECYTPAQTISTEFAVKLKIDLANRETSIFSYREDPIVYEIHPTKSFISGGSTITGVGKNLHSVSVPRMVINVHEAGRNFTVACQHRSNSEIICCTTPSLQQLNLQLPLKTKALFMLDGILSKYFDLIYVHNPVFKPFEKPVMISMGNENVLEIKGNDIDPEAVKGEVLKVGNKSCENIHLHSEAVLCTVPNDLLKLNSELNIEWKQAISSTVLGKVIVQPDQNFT
T4 sequence (P35968 20-764, change not shown): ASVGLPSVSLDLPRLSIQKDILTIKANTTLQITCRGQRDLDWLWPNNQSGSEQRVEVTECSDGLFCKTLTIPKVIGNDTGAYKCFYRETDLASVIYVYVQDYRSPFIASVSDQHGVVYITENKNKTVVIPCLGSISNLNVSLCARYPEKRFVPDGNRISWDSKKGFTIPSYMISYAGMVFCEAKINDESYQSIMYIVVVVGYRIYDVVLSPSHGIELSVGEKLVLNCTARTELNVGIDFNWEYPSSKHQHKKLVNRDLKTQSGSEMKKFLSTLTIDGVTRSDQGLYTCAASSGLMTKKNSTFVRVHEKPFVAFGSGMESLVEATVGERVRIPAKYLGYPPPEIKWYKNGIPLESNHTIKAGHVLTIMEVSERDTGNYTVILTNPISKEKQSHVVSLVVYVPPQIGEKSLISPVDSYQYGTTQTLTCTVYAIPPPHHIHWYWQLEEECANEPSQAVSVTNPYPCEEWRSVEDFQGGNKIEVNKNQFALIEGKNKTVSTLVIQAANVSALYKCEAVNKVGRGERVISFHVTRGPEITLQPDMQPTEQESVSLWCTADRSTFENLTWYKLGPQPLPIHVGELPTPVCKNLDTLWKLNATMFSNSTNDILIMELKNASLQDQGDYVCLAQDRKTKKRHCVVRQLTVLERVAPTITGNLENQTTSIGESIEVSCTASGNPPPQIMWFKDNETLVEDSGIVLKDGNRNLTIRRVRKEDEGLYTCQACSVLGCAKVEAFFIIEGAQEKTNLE

B1: hu8C4 (IgG1 humanized antibody having a hinge region of SEQ ID NO: 38 in hu8C4-1) (antibody, V domains shown)
VH: EVQLVESGGGLVQPGGSLRLSCAASGYTFSDYYINWVRQAPGKGLEWIGEIFPGSGNTHFSARFKGRATLSADKSKNTAYLQMNSLRAEDTAVYYCAGGDYGFLYWGQGTLVTVSS
VL: DIQMTQSPSSLSASVGDRVTITCGASENIYGALNWYQQKPGKAPKLLIYGATNLADGVPSRFSGSGSGRDFTFTISSLQPEDIATYYCQNVLSSPYTFGQGTKVEIK
notes: light chain detected with anti-human kappa; also called anti-c-Met antibody hu8C4; hu8C4 monospecific antibody
On to B1, for which the Kd amounted to 317 pM in [1] and 462 pM in assay [2]. For the same molecule, the results for the koff in assay [1] and in [2] were 0.000215 s⁻¹ and 0.000345 s⁻¹, respectively. The kon amounted to 677000 M⁻¹ s⁻¹ in [1] and 747000 M⁻¹ s⁻¹ in assay [2]. Moreover, the “A450 nm-A570 nm” value in assay [3] is -0.01 A450 nm-A570 nm; in assay [4], -0.01 A450 nm-A570 nm; in assay [5], 0 A450 nm-A570 nm; in [6], 0 A450 nm-A570 nm; in assay [7], -0.01 A450 nm-A570 nm; in assay [8], -0.01 A450 nm-A570 nm. Moreover, the “A450 nm-A570 nm” value in assay [9] is 0 A450 nm-A570 nm; in [11] it was -0.01 A450 nm-A570 nm; in assay [12] it was -0.01 A450 nm-A570 nm; in assay [13], 0 A450 nm-A570 nm; in assay [14], 0 A450 nm-A570 nm. The binding result in assay [10] is “no binding (tested: 100 nM)”.
